B1: OR4K15 (parent)
chain: GUUAACGGUCAUAGGCCAUGGAAACUAGGAGCACCAUUUCGCUGCCAGUGAAGAAAUGAACAAAGAAAAUCUGGGCCAGGCAGGCAUCAAAAGAAAUAGUCUUGCGCUCAACCAGAAAGUCUGUAAUCAUUUUAAGGGUA

Variants of: B1
Test: self-cleavage, relative activity (ratio to wild type); higher = more cleavage; in vitro, sequencing; the parent is a self-cleaving ribozyme
GUUAACGGUCGUAGGCCACGGAAACUAGGAGCACCAUUUCGCUGCCAGUGAAGAAAUGAACAAAGAAAAUCUGGGCCAGGCAGGCAUCAAAAGAAAUAGUCUUGCGCUCAACCAGAAAGUCUGUAAUCAUUUUAAGGGUA [A11G U19C] showed a self-cleavage of 0.56.
Work on GUUAACGGUCGUAGGCCAAGGAAACUAGGAGCACCAUUUCGCUGCCAGUGAAGAAAUGAACAAAGAAAAUCUGGGCCAGGCAGGCAUCAAAAGAAAUAGUCUUGCGCUCAACCAGAAAGUCUGUAAUCAUUUUAAGGGUA [A11G U19A] yielded a self-cleavage of 1.08.
GUUAACGGUCGUAGGCCAUGGAAACUAGGAGCACCAUUUCGCUGCUAGUGAAGAAAUGAACAAAGAAAAUCUGGGCCAGGCAGGCAUCAAAAGAAAUAGUCUUGCGCUCAACCAGAAAGUCUGUAAUCAUUUUAAGGGUA [A11G C46U] showed a self-cleavage of 0.77.
Variant GUUAACGGUCGUAGGCCAUGGAAACUAGGAGCACCAUUUCGCUGCCAGUGAAGAAAUGAACAAAGAAAAUCUGAGCCAGGCAGGCAUCAAAAGAAAUAGUCUUGCGCUCAACCAGAAAGUCUGUAAUCAUUUUAAGGGUA [A11G G74A] has a self-cleavage of 0.41.
Variant GUUAACGGUCGUAGGCCAUGGAAACUAGGAGCACCAUUUCGCUGCCAGUGAAGAAAUGAACAAAGAAAAUCUGUGCCAGGCAGGCAUCAAAAGAAAUAGUCUUGCGCUCAACCAGAAAGUCUGUAAUCAUUUUAAGGGUA [A11G G74U] has a self-cleavage of 0.24.
GUUAACGGUCGUAGGCCAUGGAAACUAGGAGCACCAUUUCGCUGCCAGUGAAGAAAUGAACAAAGAAAAUCUGCGCCAGGCAGGCAUCAAAAGAAAUAGUCUUGCGCUCAACCAGAAAGUCUGUAAUCAUUUUAAGGGUA [A11G G74C] showed a self-cleavage of 0.38.
In the case of GUUAACGGUCGUAGGCCAUGGAAACUAGGAGCACCAUUACGCUGCCAGUGAAGAAAUGAACAAAGAAAAUCUGGGCCAGGCAGGCAUCAAAAGAAAUAGUCUUGCGCUCAACCAGAAAGUCUGUAAUCAUUUUAAGGGUA [A11G U39A], the self-cleavage is reported as 0.88.
With GUUAACGGUCGUAGGCCAUGGAAACUAGGAGCACCAUUUCGCUGCCAGUGAAGAAAUGAACAAAGAAAAUCUGGGCCAGGCAGGCAUCAAAAGAAAUAGUCUUGCGCUCAACCAGAAAGUCUGUAGUCAUUUUAAGGGUA [A11G A126G] the self-cleavage was 0.39.
GUUAACGGUCGUAGGCCAUGGAAACUAGGAGCACCAUUUCGCUGCCAGUGAAGAAAUGAAAAAAGAAAAUCUGGGCCAGGCAGGCAUCAAAAGAAAUAGUCUUGCGCUCAACCAGAAAGUCUGUAAUCAUUUUAAGGGUA [A11G C61A] showed a self-cleavage of 0.69.
GUUAACGGUCGUAGGCCAUGGAAACUAGGAGCACCAUUUCGCUGCCAGUGAAGAAAUGAACAAAGAAAAUCUGGGCCAAGCAGGCAUCAAAAGAAAUAGUCUUGCGCUCAACCAGAAAGUCUGUAAUCAUUUUAAGGGUA [A11G G79A] gave a self-cleavage of 0.16.
Variant GUUAACGGUCGUAGGCCAUGGAAACUAGAAGCACCAUUUCGCUGCCAGUGAAGAAAUGAACAAAGAAAAUCUGGGCCAGGCAGGCAUCAAAAGAAAUAGUCUUGCGCUCAACCAGAAAGUCUGUAAUCAUUUUAAGGGUA [A11G G29A] has a self-cleavage of 0.57.
In the case of GUUAACGGUCGUAGGCCAUGGAAACUAGGAGCACCAUUUCGCUGCCAGUGAAGAAAUGAACAAAGAAAAUCUGGGCCAGGCAGGCAUCAAAAGAAAUAGUCUUGCGCUCAACCAGAAAGUCUGUAAUCAUUUUAAUGGUA [A11G G136U], the self-cleavage is reported as 1.19.
In the case of GUUAACGGUCGUAGGCCAUGGAAACUAGGAGCACCACUUCGCUGCCAGUGAAGAAAUGAACAAAGAAAAUCUGGGCCAGGCAGGCAUCAAAAGAAAUAGUCUUGCGCUCAACCAGAAAGUCUGUAAUCAUUUUAAGGGUA [A11G U37C], the self-cleavage is reported as 1.16.
Variant GUUAACGGUCGUAGGCCAUGGAAACUAGGAGCACCAUUUCGCUGCCAGUGAAGAAAUGAACAAAGAAAAUGUGGGCCAGGCAGGCAUCAAAAGAAAUAGUCUUGCGCUCAACCAGAAAGUCUGUAAUCAUUUUAAGGGUA [A11G C71G] has a self-cleavage of 0.34.
In the case of GUUAACGGUCGUAGGCCAUGGAAACUAGGAGCACCAUUUCGCUGCCAGUGAAGAAAUGAACAAAGAAAAUCUGGGCCAGGCAGGCAUCAAAAGAAAUAGUCUUGCGCUCAACCAGAAAGUCUGUAAUCGUUUUAAGGGUA [A11G A129G], the self-cleavage is reported as 0.83.
Variant GUUAACGGUCGUAGGCCAUGGAAACUAGGAGCACCAUUUCGCUGCCAGUGAAGAAAUGAACAAAGAAAAUCUGGGCCAGGCAGGCAUCAAAAGAAAUAGUCUUGCGCUCAACCAGAAAGUCUGUAAUCUUUUUAAGGGUA [A11G A129U] has a self-cleavage of 0.45.
With GUUAACGGUCGUAAGCCAUGGAAACUAGGAGCACCAUUUCGCUGCCAGUGAAGAAAUGAACAAAGAAAAUCUGGGCCAGGCAGGCAUCAAAAGAAAUAGUCUUGCGCUCAACCAGAAAGUCUGUAAUCAUUUUAAGGGUA [A11G G14A] the self-cleavage was 1.31.
In the case of GUUAACGGUCGUAGGCCAUGGAAACUAGGAGCACCAUUUCGCUGCCAGUGAAGAAAUGAACAAAGAAAAUCUGGGCCAGGCAGGCAUCAAAAGAAAUAGUCUUGCGCUCAUCCAGAAAGUCUGUAAUCAUUUUAAGGGUA [A11G A111U], the self-cleavage is reported as 0.11.
GUUAACGGUCGUAGGCCAUGGAAACUAGGAGCACCAUUUCGCUGCCAGUGAAGAAAUGAACAAAGAAAAUCUGGGCCAGGCAGGCAUCAAAAGAAAUAGUCUUGCGCUCACCCAGAAAGUCUGUAAUCAUUUUAAGGGUA [A11G A111C] showed a self-cleavage of 0.04.
GUUAACGGUCGUAGGCCAUGGAAACUAGGAGCACCAUUUCGCUGCCAGUGAAGAAAUGAACAAAGAAAAUCUAGGCCAGGCAGGCAUCAAAAGAAAUAGUCUUGCGCUCAACCAGAAAGUCUGUAAUCAUUUUAAGGGUA [A11G G73A] showed a self-cleavage of 0.14.
With GUUAACGGUCGUAGGCCAUGGAAACUAGGAGCACCAUUUCGCUGCCAGUGAAGAAAUGAACAAAGAAAAUCUGGGCCAGGCAGGCAUCAAAAGAAAUAGUCUUGCGCUCAACCAUAAAGUCUGUAAUCAUUUUAAGGGUA [A11G G115U] the self-cleavage was 0.27.
In the case of GUUAACGGUCGUAGGCCAUGGAAACUAGGAGCACCAUUUCGCUGCCAGUGAAGAAAUGAACAAAGAAAAUCUGGGCCAGGCAGGAAUCAAAAGAAAUAGUCUUGCGCUCAACCAGAAAGUCUGUAAUCAUUUUAAGGGUA [A11G C85A], the self-cleavage is reported as 1.53.
GUUAACGGUCGUAGGCCAUGGAAACUAGGAGCACCAUUUCGCUGCCAGUUAAGAAAUGAACAAAGAAAAUCUGGGCCAGGCAGGCAUCAAAAGAAAUAGUCUUGCGCUCAACCAGAAAGUCUGUAAUCAUUUUAAGGGUA [A11G G50U] gave a self-cleavage of 1.02.
In the case of GUUAACGGUCGUAGGCCAUGGAAACUAGGAGCACCAUUUCGCUGCCAAUGAAGAAAUGAACAAAGAAAAUCUGGGCCAGGCAGGCAUCAAAAGAAAUAGUCUUGCGCUCAACCAGAAAGUCUGUAAUCAUUUUAAGGGUA [A11G G48A], the self-cleavage is reported as 1.9.
Work on GUUAACGGUCGUAGGCCAUGGAAACUAGGAGCACCAUUUCGCUGCCAGUGAAGAAAUGAACAAAGAAAAUCUGGGCCAGGCAGGCAUCAAAAGAAAUAGUCUUGCGCUCAACCAGAAGGUCUGUAAUCAUUUUAAGGGUA [A11G A118G] yielded a self-cleavage of 1.02.
GUUAACGGUCGUAGGCCAUGGAAACUAGGAGCACCAUUUCGCUGCCAGUGAAGAAAUGAACAAAGAAAAUCUGGGCCAGGCAGGCAUCAAAAGAAAUAGUCUUGCGCUCAACCAGUAAGUCUGUAAUCAUUUUAAGGGUA [A11G A116U] showed a self-cleavage of 0.12.
Variant GUUAACGGUCGUAGGCCAUGGAAACUAGGAGCACCAUUUCGCUGCCAGUGAAGAAAUGAACAAAGAAAAUCUGGGCCAGGCAGGCAUCAAAAGAAAUAGUCUUGCGCUCAACCAGGAAGUCUGUAAUCAUUUUAAGGGUA [A11G A116G] has a self-cleavage of 0.92.
Work on GUUAACGGUCGUAGGCCAUGGAAACUAGGAGCACCAUUUCGCGGCCAGUGAAGAAAUGAACAAAGAAAAUCUGGGCCAGGCAGGCAUCAAAAGAAAUAGUCUUGCGCUCAACCAGAAAGUCUGUAAUCAUUUUAAGGGUA [A11G U43G] yielded a self-cleavage of 1.18.
With GUUAACGGUCGUAGGCCAUGGAAACUAGGAGCACCAUUUCGCCGCCAGUGAAGAAAUGAACAAAGAAAAUCUGGGCCAGGCAGGCAUCAAAAGAAAUAGUCUUGCGCUCAACCAGAAAGUCUGUAAUCAUUUUAAGGGUA [A11G U43C] the self-cleavage was 0.92.
Work on GUUAACGGUCGUAGGCCAUGGAAACUAGGAGCACCAUUUCGCAGCCAGUGAAGAAAUGAACAAAGAAAAUCUGGGCCAGGCAGGCAUCAAAAGAAAUAGUCUUGCGCUCAACCAGAAAGUCUGUAAUCAUUUUAAGGGUA [A11G U43A] yielded a self-cleavage of 1.12.
For GUUAACGGUCGUAGGCCAUGGAAACUAGGAGCACCAUUUCGCUGCCAGUGAAGAAAUGAACAAAGAAAAUCUGGGCCAGGCAGGCAUCAAAAGAAAUAGUCUUGUGCUCAACCAGAAAGUCUGUAAUCAUUUUAAGGGUA [A11G C105U], the self-cleavage was 0.09.
Work on GUUAACGGUCGUAGGCCAUGGAAACUAGGAGCACCAUUUCGCUGCCAGUGAAGAAAUGAACAAAGAAAAUCUGGGCCAGGCAGGCAUCAAAAGAAAUAGUCUUGCGCUCAACCAGAAAAUCUGUAAUCAUUUUAAGGGUA [A11G G119A] yielded a self-cleavage of 2.11.
With GUUAACGGUCGUAGGCCAUGGAAACUAGGAGGACCAUUUCGCUGCCAGUGAAGAAAUGAACAAAGAAAAUCUGGGCCAGGCAGGCAUCAAAAGAAAUAGUCUUGCGCUCAACCAGAAAGUCUGUAAUCAUUUUAAGGGUA [A11G C32G] the self-cleavage was 0.61.
For GUUAACGGUCGCAGGCCAUGGAAACUAGGAGCACCAUUUCGCUGCCAGUGAAGAAAUGAACAAAGAAAAUCUGGGCCAGGCAGGCAUCAAAAGAAAUAGUCUUGCGCUCAACCAGAAAGUCUGUAAUCAUUUUAAGGGUA [A11G U12C], the self-cleavage was 1.07.
GUUAACGGUCGUAGGCCAUGGAAACUAGGAGCACCAUUUCGCUGCCAGUGAAGAAAUGAACAAAGAAAAUCUGGGCCAGGCAGGCAUCAAAAGAAAUAGUCUUGCGCUCAACCUGAAAGUCUGUAAUCAUUUUAAGGGUA [A11G A114U] showed a self-cleavage of 0.15.
In the case of GUUAACGGUCGUAGGCCAUGGAAACUAGGAGCACCAUUUCGCUGCCAGUGAAGAAAUGAACAAAGAAAAUCUGGGCCAGGCAAGCAUCAAAAGAAAUAGUCUUGCGCUCAACCAGAAAGUCUGUAAUCAUUUUAAGGGUA [A11G G83A], the self-cleavage is reported as 1.23.
In the case of GUUAACGGUCGUAGGCCAUGGAAACUAGGAGCACCAUUUCGCUGCCAGUGAAGAAAUUAACAAAGAAAAUCUGGGCCAGGCAGGCAUCAAAAGAAAUAGUCUUGCGCUCAACCAGAAAGUCUGUAAUCAUUUUAAGGGUA [A11G G58U], the self-cleavage is reported as 0.79.
In the case of GUUAACGGUCGUAGGCCAUGGAAACUAGGAGCACCAUUUCGCUGCCAGUGAAGAAAUGAACAAAGAAAAUCUGGGCCAGGCAGGCAUCAAAAGAAAUAGUCUUGCGCUCAACCAGAGAGUCUGUAAUCAUUUUAAGGGUA [A11G A117G], the self-cleavage is reported as 1.19.
GUUAACGGUCGUAGGCCAUGGAAACUAGGAGCACCAUUUCGCUGCCAGAGAAGAAAUGAACAAAGAAAAUCUGGGCCAGGCAGGCAUCAAAAGAAAUAGUCUUGCGCUCAACCAGAAAGUCUGUAAUCAUUUUAAGGGUA [A11G U49A] showed a self-cleavage of 0.88.
With GUUAACGGUCGUAGGCCAUGGAAACUAGGAGCACCAUUUCGCUGCCAGGGAAGAAAUGAACAAAGAAAAUCUGGGCCAGGCAGGCAUCAAAAGAAAUAGUCUUGCGCUCAACCAGAAAGUCUGUAAUCAUUUUAAGGGUA [A11G U49G] the self-cleavage was 1.21.
Variant GUUAACGGUCGUAGGCCAUGGAAACUAGGAGCACCAUUUCGCUGCCAGUGAAGAAAUGAACAAAGAAAAUCUGGGCCAGGUAGGCAUCAAAAGAAAUAGUCUUGCGCUCAACCAGAAAGUCUGUAAUCAUUUUAAGGGUA [A11G C81U] has a self-cleavage of 0.75.

— the RNAGym collection of RNA variant scans (doi:10.7554/elife.90254)
